Data as given in patent publication WO2025083273A1 (dated 2025).

T1: human DR3 (TNFRSF25) expressed on cells (human, UniProt Q93038 25-417)
T1 sequence: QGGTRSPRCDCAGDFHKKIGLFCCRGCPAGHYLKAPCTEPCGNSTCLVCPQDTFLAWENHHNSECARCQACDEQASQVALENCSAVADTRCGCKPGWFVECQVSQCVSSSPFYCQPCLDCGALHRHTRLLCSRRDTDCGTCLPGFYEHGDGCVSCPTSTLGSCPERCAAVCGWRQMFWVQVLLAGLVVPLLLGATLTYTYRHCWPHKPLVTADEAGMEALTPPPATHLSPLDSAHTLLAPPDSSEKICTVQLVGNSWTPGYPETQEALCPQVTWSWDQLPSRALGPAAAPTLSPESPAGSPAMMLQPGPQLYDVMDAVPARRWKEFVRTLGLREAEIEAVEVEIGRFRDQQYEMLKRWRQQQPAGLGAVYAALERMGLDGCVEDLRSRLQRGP

T2: DR3-8i (human)
T2 construct: also called purified monomeric DR3-8i antigen protein
T2 chain: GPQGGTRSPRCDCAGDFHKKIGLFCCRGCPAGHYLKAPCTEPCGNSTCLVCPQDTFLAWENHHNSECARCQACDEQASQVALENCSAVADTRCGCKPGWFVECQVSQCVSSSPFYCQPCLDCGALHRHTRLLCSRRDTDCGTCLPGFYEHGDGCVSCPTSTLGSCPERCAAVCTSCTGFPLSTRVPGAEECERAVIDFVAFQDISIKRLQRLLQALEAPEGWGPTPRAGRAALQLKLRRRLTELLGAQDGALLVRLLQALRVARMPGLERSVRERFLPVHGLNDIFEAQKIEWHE


Columns and labels:
[1] = biological target: T1, human DR3 (TNFRSF25) expressed on cells; assay: cell-based or functional assay
DR3-8i [2] = biological target: T2, DR3-8i; assay: BLI, IgG captured on protein A, DR3-8i in solution; single experiment, column not clear
DR3-8i [3] = biological target: T2, DR3-8i; assay: BLI, IgG captured on protein A, DR3-8i in solution; Experiment 1
DR3-8i [4] = biological target: T2, DR3-8i; assay: BLI, IgG captured on protein A, DR3-8i in solution; Average
DR3-8i [5] = biological target: T2, DR3-8i; assay: BLI, IgG captured on protein A, DR3-8i in solution; Experiment 2

Row | Binder | Signal (FLU) [1] [FLU] | Kd (DR3-8i [2]) [nM] | EC50 (pM), DR3 Jurkat reporter [1] [pM] | Kd (DR3-8i [3]) [nM] | Kd (DR3-8i [4]) [nM] | Kd (DR3-8i [5]) [nM]
1 | VHg2/VLg2 (antibody, human IgG1, V domains shown, human IgG1) VH: QMQLVQSGGGLVKPGGSLRLSCAASGFTFSSYAMSWIRQAPGKGLEWVSTISDGDSYSYFPDSVKDRFTISRDNAKNSLYLQMNSLRAEDTAVYYCTRDRIYGSVQYYAMDYWGRGTLVTVSS VL: DIQLTQSPSSLSASVGDRVTITCRASESVEFSGTSLMQWYQQKAGLAPKLLIYAASNVESGVPSRFSGSGSGTDFTLTISSLQPEDFGTYYCQQSRKLPYTFGQGTRLEIK | 2.5e+06 |  | 103 | 0.001 | 0.106 | 0.21
2 | VHg10/VLg6 (antibody, human IgG1, V domains shown, human IgG1) VH: EVQLVESGGGLVQPGGSLRLSCAASGFTFSSYAMSWVRQAPGKGLEWVSTISDGDSYSYFPDSVKDRFTISRDNSKNTLYLQMNSLRAEDTAVYYCARDRIYGSVQYYAMDYWGQGTLVTVSS VL: DVVMTQSPPSLPVTPGEPASISCRASESVEFSGTSLMQWYLQKPGQSPQVLIYAASNVESGVPDRFSGSGSGTDFTLKISRVEAEDVGVYYCQQSRKLPYTFGQGTRLEIK | 2.75e+06 |  |  | 0.418 | 0.326 | 0.234
3 | VHg1/VLg2 (antibody, human IgG1, V domains shown, human IgG1) VH: QVQLVQSGGGLVQPGGSLRLSCAASGFTFSSYAMSWVRQAPGKGLEWVSTISDGDSYSYFPDSVKDRFTISRDNSKNTLYLQMNSLRAEDTSVYYCARDRIYGSVQYYAMDYWGQGTLVTVSS VL: DIQLTQSPSSLSASVGDRVTITCRASESVEFSGTSLMQWYQQKAGLAPKLLIYAASNVESGVPSRFSGSGSGTDFTLTISSLQPEDFGTYYCQQSRKLPYTFGQGTRLEIK | 2.44e+06 |  | 336 | 0.316 | 0.159 | 0.00202
4 | VHg5/VLg2 (antibody, human IgG1, V domains shown, human IgG1) VH: QVQLQQSGGGLVQAGGSLRLSCAASGFTFTSYAMSWVRQAPGKGLEWVATISDGDSYSYFPDSVKDRFIISRDNAKNSLFLQMNSLRAEDTAVYYCARDRIYGSVQYYAMDYWGRGTLVTVSS VL: DIQLTQSPSSLSASVGDRVTITCRASESVEFSGTSLMQWYQQKAGLAPKLLIYAASNVESGVPSRFSGSGSGTDFTLTISSLQPEDFGTYYCQQSRKLPYTFGQGTRLEIK | 2.76e+06 | 0.132 |  |  |  | 
5 | VHg3/VLg13 (antibody, human IgG1, V domains shown, human IgG1) VH: EVQLVQSGGGLVKPGGSLRLSCAASGFKFSSYAMSWVRQAPGKGLEWLSTISDGDSYSYFPDSVKDRFIISRDNAKNSLYLQMNSLRVEDTGVYYCARDRIYGSVQYYAMDYWGQGTLVTVSS VL: DIQMTQSPSSLSASVGDRVTITCRASESVEFSGTSLMQWYQQKPGKAPKLLIYAASNVESGVPSRFSGSGSGTDFTFTISSLQPEDIATYYCQQSRKLPYTFGQGTKLEIK | 2.66e+06 |  | 1770 | 0.464 | 0.427 | 0.389
6 | VHg3/VLg4 (antibody, human IgG1, V domains shown, human IgG1) VH: EVQLVQSGGGLVKPGGSLRLSCAASGFKFSSYAMSWVRQAPGKGLEWLSTISDGDSYSYFPDSVKDRFIISRDNAKNSLYLQMNSLRVEDTGVYYCARDRIYGSVQYYAMDYWGQGTLVTVSS VL: DVVMTQSPDSLAVSLGERATISCRASESVEFSGTSLMQWYQQKPRQPLKLLIYAASNVESGVPDRFSGSGSGTDFTLTISSLQAEDVAVYYCQQSRKLPYTFGQGTRLEIK | 2.32e+06 | 0.385 |  |  |  | 

Now from value to binder:

Row | Signal (FLU) [1] [FLU] | Kd (DR3-8i [2]) [nM] | EC50 (pM), DR3 Jurkat reporter [1] [pM] | Kd (DR3-8i [3]) [nM] | Kd (DR3-8i [4]) [nM] | Kd (DR3-8i [5]) [nM] | Binder
7 | 2.09e+06 | 0.196 |  |  |  |  | VHg1/VLg4 (antibody, human IgG1, V domains shown, human IgG1) VH: QVQLVQSGGGLVQPGGSLRLSCAASGFTFSSYAMSWVRQAPGKGLEWVSTISDGDSYSYFPDSVKDRFTISRDNSKNTLYLQMNSLRAEDTSVYYCARDRIYGSVQYYAMDYWGQGTLVTVSS VL: DVVMTQSPDSLAVSLGERATISCRASESVEFSGTSLMQWYQQKPRQPLKLLIYAASNVESGVPDRFSGSGSGTDFTLTISSLQAEDVAVYYCQQSRKLPYTFGQGTRLEIK
8 | 2.34e+06 |  | 644 | 0.41 | 0.415 | 0.42 | VHg2/VLs10 (antibody, human IgG1, V domains shown, human IgG1; also called VHg2_VLg10) VH: QMQLVQSGGGLVKPGGSLRLSCAASGFTFSSYAMSWIRQAPGKGLEWVSTISDGDSYSYFPDSVKDRFTISRDNAKNSLYLQMNSLRAEDTAVYYCTRDRIYGSVQYYAMDYWGRGTLVTVSS VL: ETTLTQSPGTLSLSPGERATLSCRASQSVSSSSLAWYQQKPGQAPRLLIYGASSRATGIPDRFSGSGSGTDFTLTISRLEPEDFAVYYCHQYGGSWTFGKGTKVEIK
9 | 2.94e+06 | 0.157 |  |  |  |  | VHg2/VLg13 (antibody, human IgG1, V domains shown, human IgG1) VH: QMQLVQSGGGLVKPGGSLRLSCAASGFTFSSYAMSWIRQAPGKGLEWVSTISDGDSYSYFPDSVKDRFTISRDNAKNSLYLQMNSLRAEDTAVYYCTRDRIYGSVQYYAMDYWGRGTLVTVSS VL: DIQMTQSPSSLSASVGDRVTITCRASESVEFSGTSLMQWYQQKPGKAPKLLIYAASNVESGVPSRFSGSGSGTDFTFTISSLQPEDIATYYCQQSRKLPYTFGQGTKLEIK
10 | 2.44e+06 |  | 118 | 0.227 | 0.193 | 0.159 | VHg6/VLg2 (antibody, human IgG1, V domains shown, human IgG1) VH: QVQLQQSGGGLVQPGGSLRLSCAASGFTFSSYAMSWVRQAPGKGLEWVATISDGDSYSYFPDSVKDRFTISRDNARNSLYLQMNSLRAEDTAVYYCARDRIYGSVQYYAMDYWGRGTLVTVSS VL: DIQLTQSPSSLSASVGDRVTITCRASESVEFSGTSLMQWYQQKAGLAPKLLIYAASNVESGVPSRFSGSGSGTDFTLTISSLQPEDFGTYYCQQSRKLPYTFGQGTRLEIK
11 | 2.7e+06 | 0.124 |  |  |  |  | VHg5/VLg13 (antibody, human IgG1, V domains shown, human IgG1) VH: QVQLQQSGGGLVQAGGSLRLSCAASGFTFTSYAMSWVRQAPGKGLEWVATISDGDSYSYFPDSVKDRFIISRDNAKNSLFLQMNSLRAEDTAVYYCARDRIYGSVQYYAMDYWGRGTLVTVSS VL: DIQMTQSPSSLSASVGDRVTITCRASESVEFSGTSLMQWYQQKPGKAPKLLIYAASNVESGVPSRFSGSGSGTDFTFTISSLQPEDIATYYCQQSRKLPYTFGQGTKLEIK
12 | 2.21e+06 | 0.0248 |  |  |  |  | VHg2/VLg4 (antibody, human IgG1, V domains shown, human IgG1) VH: QMQLVQSGGGLVKPGGSLRLSCAASGFTFSSYAMSWIRQAPGKGLEWVSTISDGDSYSYFPDSVKDRFTISRDNAKNSLYLQMNSLRAEDTAVYYCTRDRIYGSVQYYAMDYWGRGTLVTVSS VL: DVVMTQSPDSLAVSLGERATISCRASESVEFSGTSLMQWYQQKPRQPLKLLIYAASNVESGVPDRFSGSGSGTDFTLTISSLQAEDVAVYYCQQSRKLPYTFGQGTRLEIK
13 | 2.16e+06 | 0.076 |  |  |  |  | VHg6/VLg1 (antibody, human IgG1, V domains shown, human IgG1) VH: QVQLQQSGGGLVQPGGSLRLSCAASGFTFSSYAMSWVRQAPGKGLEWVATISDGDSYSYFPDSVKDRFTISRDNARNSLYLQMNSLRAEDTAVYYCARDRIYGSVQYYAMDYWGRGTLVTVSS VL: DVVMTQSPDSLAVSLGERATINCRASESVEFSGTSLMQWYQQKPGQPPKLLIYAASNVESGVPDRFSGSGSGTDFTLTISSLQAEDVVVYYCQQSRKLPYTFGGGTKVEIK
14 | 2.4e+06 | 0.0881 |  |  |  |  | VHg5/VLg11 (antibody, human IgG1, V domains shown, human IgG1) VH: QVQLQQSGGGLVQAGGSLRLSCAASGFTFTSYAMSWVRQAPGKGLEWVATISDGDSYSYFPDSVKDRFIISRDNAKNSLFLQMNSLRAEDTAVYYCARDRIYGSVQYYAMDYWGRGTLVTVSS VL: DIVMTQSPDSLAVSLGERATINCRASESVEFSGTSLMQWYQQKPGQPPKLLIYAASNVESGVPDRFSGSGSGTDFTLTISSLQAEDVAVYYCQQSRKLPYTFGQGTKLEIK
15 | 2.62e+06 | 0.126 |  |  |  |  | VHg5/VLg12 (antibody, human IgG1, V domains shown, human IgG1) VH: QVQLQQSGGGLVQAGGSLRLSCAASGFTFTSYAMSWVRQAPGKGLEWVATISDGDSYSYFPDSVKDRFIISRDNAKNSLFLQMNSLRAEDTAVYYCARDRIYGSVQYYAMDYWGRGTLVTVSS VL: EIVLTQSPATLSLSPGERATLSCRASESVEFSGTSLMQWYQQKPGQAPRLLIYAASNVESGIPARFSGSGSGTDFTLTISSLEPEDFAVYYCQQSRKLPYTFGQGTKLEIK
